Measurements from the supplement of paper PMC10065799, “High-throughput profiling of sequence recognition by tyrosine kinases and SH2 domains using bacterial peptide display” (eLife, 2023).

Experiments:
Fer (mouse) = assay: phosphorylation enrichment, bacterial display (enrichment ratio); higher = better substrate or ligand; peptides without Tyr show the background
Jak2 = Jak2 (UniProt O60674); assay: as above
c-Src = assay: as above
EPHB1 = EPHB1 (UniProt P54762); assay: as above
AncSZ = assay: as above
FGFR3 = FGFR3 (UniProt P22607); assay: as above
FGFR1 = FGFR1 (UniProt P11362); assay: as above
Fyn = Fyn (UniProt P06241); assay: as above
MERTK = MERTK (UniProt Q12866); assay: as above
Hck = Hck (UniProt P08631); assay: as above
c-Abl (mouse) = assay: as above
Fes = Fes (UniProt P07332); assay: as above
EPHB2 = EPHB2 (UniProt P29323); assay: as above
c-Src SH2 = assay: SH2 binding enrichment of the phosphorylated peptide, bacterial display (enrichment ratio); higher = better substrate or ligand; peptides without Tyr show the background
Grb2 SH2 = Grb2 SH2 (UniProt P62993); assay: as above
SHP2-C SH2 = assay: as above
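Wherever SH2 binding enrichment of the phosphorylated peptide, bacterial display is given: peptide library displayed on the E. coli surface as eCPX fusions, selected cells deep-sequenced, score is each peptide's frequency after selection divided by its frequency in the input.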
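Wherever phosphorylation enrichment, bacterial display is given: 11-residue human phosphosite peptides and single-mutation variants displayed on the E. coli surface, counted by deep sequencing, each peptide's frequency after selection divided by its frequency in the unselected input library; frequency after pTyr selection over input frequency; kinase dosed for 20-30% of maximal phosphorylation in three min.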

Chain of Fyn (P06241 whole entry, looked up): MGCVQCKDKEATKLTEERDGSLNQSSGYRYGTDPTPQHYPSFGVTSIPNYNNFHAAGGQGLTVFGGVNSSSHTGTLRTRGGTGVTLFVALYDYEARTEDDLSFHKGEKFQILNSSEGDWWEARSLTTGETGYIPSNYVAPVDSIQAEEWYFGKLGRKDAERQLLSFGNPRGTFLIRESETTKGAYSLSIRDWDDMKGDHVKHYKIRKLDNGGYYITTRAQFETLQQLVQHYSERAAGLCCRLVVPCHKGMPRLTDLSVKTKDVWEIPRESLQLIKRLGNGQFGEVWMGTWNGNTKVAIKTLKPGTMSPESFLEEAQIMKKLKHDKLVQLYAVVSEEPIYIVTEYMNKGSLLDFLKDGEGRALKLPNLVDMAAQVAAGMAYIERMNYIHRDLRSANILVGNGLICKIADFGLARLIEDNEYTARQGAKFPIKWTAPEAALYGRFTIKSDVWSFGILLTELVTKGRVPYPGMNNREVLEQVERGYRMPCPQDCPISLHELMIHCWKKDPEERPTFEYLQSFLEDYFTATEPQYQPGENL
Chain of EPHB1 (P54762 whole entry, looked up): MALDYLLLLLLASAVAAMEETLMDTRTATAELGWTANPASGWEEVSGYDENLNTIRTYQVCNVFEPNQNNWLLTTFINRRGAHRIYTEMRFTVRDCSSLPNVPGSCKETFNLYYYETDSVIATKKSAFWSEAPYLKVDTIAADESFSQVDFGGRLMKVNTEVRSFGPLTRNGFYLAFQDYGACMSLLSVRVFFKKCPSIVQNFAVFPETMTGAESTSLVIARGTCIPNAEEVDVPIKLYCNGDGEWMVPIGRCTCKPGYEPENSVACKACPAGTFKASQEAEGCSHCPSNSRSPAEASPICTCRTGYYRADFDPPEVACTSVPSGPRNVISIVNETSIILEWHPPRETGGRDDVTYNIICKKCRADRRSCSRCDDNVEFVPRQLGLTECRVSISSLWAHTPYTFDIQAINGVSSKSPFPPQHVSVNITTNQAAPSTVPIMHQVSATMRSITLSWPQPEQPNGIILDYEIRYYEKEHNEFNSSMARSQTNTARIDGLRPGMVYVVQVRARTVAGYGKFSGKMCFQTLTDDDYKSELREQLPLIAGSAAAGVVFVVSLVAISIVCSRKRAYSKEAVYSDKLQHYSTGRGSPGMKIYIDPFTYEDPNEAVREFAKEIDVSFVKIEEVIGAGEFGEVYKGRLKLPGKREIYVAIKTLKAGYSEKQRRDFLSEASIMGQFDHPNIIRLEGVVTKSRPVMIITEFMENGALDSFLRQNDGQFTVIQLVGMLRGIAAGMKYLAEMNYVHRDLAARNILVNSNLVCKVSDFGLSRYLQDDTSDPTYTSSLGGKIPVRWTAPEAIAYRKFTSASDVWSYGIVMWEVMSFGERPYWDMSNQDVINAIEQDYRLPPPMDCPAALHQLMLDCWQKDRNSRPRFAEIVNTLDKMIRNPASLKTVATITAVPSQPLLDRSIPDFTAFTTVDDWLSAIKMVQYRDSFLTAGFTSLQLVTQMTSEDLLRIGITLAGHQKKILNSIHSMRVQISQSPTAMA
Chain of Grb2 SH2 (P62993 whole entry, looked up): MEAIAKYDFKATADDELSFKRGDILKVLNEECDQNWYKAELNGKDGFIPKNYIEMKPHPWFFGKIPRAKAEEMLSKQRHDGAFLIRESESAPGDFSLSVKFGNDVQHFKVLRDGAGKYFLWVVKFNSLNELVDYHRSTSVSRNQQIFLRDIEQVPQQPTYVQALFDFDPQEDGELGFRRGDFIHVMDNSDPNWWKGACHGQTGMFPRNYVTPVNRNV
Chain of Hck (P08631 whole entry, looked up): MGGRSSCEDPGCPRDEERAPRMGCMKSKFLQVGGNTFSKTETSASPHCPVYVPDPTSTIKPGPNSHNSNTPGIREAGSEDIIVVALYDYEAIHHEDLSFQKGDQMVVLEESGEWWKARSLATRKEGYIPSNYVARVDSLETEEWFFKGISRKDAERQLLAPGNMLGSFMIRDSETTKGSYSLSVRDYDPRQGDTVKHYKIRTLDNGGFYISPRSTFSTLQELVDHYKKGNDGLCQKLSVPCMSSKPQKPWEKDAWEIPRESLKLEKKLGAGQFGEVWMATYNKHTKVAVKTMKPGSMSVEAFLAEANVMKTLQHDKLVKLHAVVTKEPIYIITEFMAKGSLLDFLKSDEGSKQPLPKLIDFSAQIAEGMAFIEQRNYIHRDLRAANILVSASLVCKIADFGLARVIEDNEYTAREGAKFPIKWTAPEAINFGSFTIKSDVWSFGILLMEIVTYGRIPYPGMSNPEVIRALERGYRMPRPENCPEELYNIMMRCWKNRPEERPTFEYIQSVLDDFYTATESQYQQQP
Chain of FGFR1 (P11362 whole entry, looked up): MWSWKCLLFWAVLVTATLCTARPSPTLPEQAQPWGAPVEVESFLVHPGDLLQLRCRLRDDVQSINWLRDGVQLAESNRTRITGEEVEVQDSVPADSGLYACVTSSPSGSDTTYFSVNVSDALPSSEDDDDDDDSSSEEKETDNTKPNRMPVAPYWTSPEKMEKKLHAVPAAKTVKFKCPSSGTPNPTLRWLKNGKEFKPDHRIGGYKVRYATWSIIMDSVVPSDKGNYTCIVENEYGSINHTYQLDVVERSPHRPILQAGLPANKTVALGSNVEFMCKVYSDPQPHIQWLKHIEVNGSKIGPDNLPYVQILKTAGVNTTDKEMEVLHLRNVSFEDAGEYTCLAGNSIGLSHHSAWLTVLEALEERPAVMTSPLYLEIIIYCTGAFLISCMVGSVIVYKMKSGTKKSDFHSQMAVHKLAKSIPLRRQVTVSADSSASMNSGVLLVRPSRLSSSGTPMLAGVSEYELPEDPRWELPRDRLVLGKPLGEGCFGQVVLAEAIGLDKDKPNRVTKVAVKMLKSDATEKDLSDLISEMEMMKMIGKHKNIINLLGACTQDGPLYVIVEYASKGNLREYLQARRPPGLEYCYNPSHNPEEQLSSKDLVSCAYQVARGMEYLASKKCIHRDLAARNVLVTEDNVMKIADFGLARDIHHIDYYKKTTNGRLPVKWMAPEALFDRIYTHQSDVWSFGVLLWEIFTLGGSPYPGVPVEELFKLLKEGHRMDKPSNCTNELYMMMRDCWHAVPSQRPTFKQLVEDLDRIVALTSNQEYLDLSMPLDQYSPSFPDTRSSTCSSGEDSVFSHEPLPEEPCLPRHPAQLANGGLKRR
Chain of Jak2 (O60674 whole entry, looked up): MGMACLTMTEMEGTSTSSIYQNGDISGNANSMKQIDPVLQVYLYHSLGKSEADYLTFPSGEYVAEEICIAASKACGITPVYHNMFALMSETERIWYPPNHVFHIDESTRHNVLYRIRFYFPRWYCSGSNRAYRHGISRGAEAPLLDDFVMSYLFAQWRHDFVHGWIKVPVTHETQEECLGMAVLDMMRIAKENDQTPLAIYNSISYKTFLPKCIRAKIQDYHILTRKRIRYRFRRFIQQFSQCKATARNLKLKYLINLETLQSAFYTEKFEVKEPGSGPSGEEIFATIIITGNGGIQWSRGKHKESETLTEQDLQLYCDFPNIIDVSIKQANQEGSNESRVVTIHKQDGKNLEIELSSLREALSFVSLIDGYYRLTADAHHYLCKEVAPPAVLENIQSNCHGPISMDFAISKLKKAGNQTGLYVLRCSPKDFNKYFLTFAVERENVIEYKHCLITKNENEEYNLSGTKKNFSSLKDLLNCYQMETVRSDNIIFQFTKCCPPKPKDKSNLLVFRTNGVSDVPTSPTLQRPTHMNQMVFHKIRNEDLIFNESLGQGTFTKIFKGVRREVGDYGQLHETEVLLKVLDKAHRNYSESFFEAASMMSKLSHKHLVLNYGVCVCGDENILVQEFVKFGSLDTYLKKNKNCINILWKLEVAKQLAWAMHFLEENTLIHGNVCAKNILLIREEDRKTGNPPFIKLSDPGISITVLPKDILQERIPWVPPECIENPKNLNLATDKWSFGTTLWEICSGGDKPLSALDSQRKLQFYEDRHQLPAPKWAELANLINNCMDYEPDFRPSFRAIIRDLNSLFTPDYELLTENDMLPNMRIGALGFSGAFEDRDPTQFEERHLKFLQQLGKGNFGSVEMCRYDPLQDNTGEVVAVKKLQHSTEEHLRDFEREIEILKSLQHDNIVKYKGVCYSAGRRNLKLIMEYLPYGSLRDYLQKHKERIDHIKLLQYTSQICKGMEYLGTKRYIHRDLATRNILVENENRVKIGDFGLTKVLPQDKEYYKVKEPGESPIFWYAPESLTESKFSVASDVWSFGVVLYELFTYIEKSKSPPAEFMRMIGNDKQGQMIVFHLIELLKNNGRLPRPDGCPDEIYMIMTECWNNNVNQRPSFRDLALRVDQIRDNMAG
Chain of FGFR3 (P22607 whole entry, looked up): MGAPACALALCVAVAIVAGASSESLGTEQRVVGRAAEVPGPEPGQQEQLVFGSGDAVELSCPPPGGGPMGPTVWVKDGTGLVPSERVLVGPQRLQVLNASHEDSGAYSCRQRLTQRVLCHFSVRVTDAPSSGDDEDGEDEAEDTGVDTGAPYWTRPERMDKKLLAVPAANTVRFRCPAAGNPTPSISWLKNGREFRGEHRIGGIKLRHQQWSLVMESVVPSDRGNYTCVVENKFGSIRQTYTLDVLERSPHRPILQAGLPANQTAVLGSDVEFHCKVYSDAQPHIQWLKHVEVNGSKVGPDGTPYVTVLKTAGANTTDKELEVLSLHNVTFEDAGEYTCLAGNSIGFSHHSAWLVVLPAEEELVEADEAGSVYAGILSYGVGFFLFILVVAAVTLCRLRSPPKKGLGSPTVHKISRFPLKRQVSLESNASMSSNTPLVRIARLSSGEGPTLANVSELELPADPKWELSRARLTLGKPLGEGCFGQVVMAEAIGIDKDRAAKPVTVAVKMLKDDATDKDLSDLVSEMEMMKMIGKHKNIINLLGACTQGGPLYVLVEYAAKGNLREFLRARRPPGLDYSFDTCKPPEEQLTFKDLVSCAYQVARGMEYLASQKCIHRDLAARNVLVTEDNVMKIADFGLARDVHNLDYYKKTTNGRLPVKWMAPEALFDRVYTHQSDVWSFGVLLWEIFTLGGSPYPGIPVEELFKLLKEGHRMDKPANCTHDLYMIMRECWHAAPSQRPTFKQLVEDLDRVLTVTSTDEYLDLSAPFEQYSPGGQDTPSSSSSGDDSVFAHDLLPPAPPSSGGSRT

Sequence	phosphorylation enrichment (Fer (mouse))	phosphorylation enrichment (Jak2)	phosphorylation enrichment (c-Src)	phosphorylation enrichment (EPHB1)	phosphorylation enrichment (AncSZ)	phosphorylation enrichment (FGFR3)	phosphorylation enrichment (FGFR1)	phosphorylation enrichment (Fyn)	phosphorylation enrichment (MERTK)	phosphorylation enrichment (Hck)	phosphorylation enrichment (c-Abl (mouse))	phosphorylation enrichment (Fes)	phosphorylation enrichment (EPHB2)	SH2 binding enrichment (c-Src SH2)	SH2 binding enrichment (Grb2 SH2)	SH2 binding enrichment (SHP2-C SH2)
LGKLIYPVGFW [NTHL1_Y177]	0.557	1.67	1.35	0.999	1.6	1.13	0.816	0.752	0.634	0.746	1.27	1.87	1.02	1.13	1.53	1.55
ATKNDYWAMLA [WWOX_Y287_P282A]	0.452	1.02	0.418	1.72	1.17	3.97	6.01	0.384	0.499	0.453	0.881	1	1.15	0.497	0.677	0.752
LRAGVYPEKDQ [DNM2_Y626]	0.39	0.773	0.507	0.443	0.754	0.633	0.467	0.454	0.43	0.662	0.803	0.971	0.498	0.509	0.611	0.779
DRLANYLEKVR [KRT40_Y103_S102N]	0.373	0.587	0.395	0.337	0.651	0.64	0.382	0.399	0.41	0.38	0.469	0.74	0.424	0.339	0.764	0.731
GCLSKYSGVFS [TUBGCP6_Y1624_V1621L]	0.514	1.19	0.509	0.52	0.778	0.565	0.425	0.51	0.46	0.542	0.673	1.01	0.543	0.723	1.04	1.07
KLIETYFSKNF [PLP1_Y50_YF]	0.4	0.87	0.558	0.474	0.942	0.589	0.449	0.474	0.427	0.519	0.668	0.99	0.452	0.542	0.9	0.626
RQNNSYTCYTA [SLC20A2_Y386_R382Q]	0.528	0.787	0.915	0.597	1.11	0.659	0.557	0.58	0.476	0.694	0.582	0.897	0.76	0.664	0.739	0.644
GRDVIYKGFED [NFU1_Y194_G190R]	0.426	0.767	1.97	0.528	0.77	0.539	0.468	2.94	0.391	0.96	0.561	1	0.401	0.51	0.696	0.769
ELRGTYTSLQQ [KIF3C_Y574]	0.428	0.777	1.39	0.398	0.705	0.535	0.489	0.978	0.434	0.956	0.684	0.869	0.481	3.05	0.775	4.42
DLAHKYHGGGG [HBB_Y146_A141D]	0.32	0.545	0.388	0.333	0.441	0.388	0.43	0.373	0.452	0.348	0.394	0.473	0.392	0.42	0.722	0.54
EEGENYQKGEQ [CHGB_Y173_R178Q]	0.51	1.4	0.545	0.592	1.28	0.747	0.637	0.519	0.561	0.519	0.898	1.28	0.63	0.472	0.876	0.473
YPKAHYHWLVL [APTX_Y214_R213H]	0.571	1.16	0.487	0.505	0.823	1.94	2.54	0.368	0.61	0.501	0.846	1.15	0.482	1.2	1.6	1.43
PVKSEYSSIKL [NPC2_Y119_P120S]	0.702	0.737	0.602	0.579	0.783	0.523	0.518	0.553	0.5	1.11	1.03	1.06	0.533	1.95	0.665	4.74
KYVVVYFRETD [IL17RB_Y447_I451T]	0.564	1.27	0.491	0.757	1.36	0.708	0.459	0.43	0.445	0.579	0.762	1.34	0.554	1.7	2.28	6.88
LESETYRRLLD [KRT12_Y429_I426S]	0.708	1.07	0.517	0.75	1.44	1.02	0.784	0.684	0.664	0.697	0.778	1.66	0.836	0.429	0.915	0.911
VLRRVYVDFEG [KMT2B_Y1707]	0.403	0.774	0.602	0.424	0.842	0.613	0.478	0.472	0.435	0.502	0.629	0.909	0.518	1.41	1.08	0.884
FQLENYCNGGG [INS_Y108_YF]	0.364	2.44	0.736	0.677	1.34	0.72	0.601	0.878	0.45	0.619	1.76	1.41	0.458	1.18	1.29	0.674

Sequence	phosphorylation enrichment (Fer (mouse))	phosphorylation enrichment (Jak2)	phosphorylation enrichment (c-Src)	phosphorylation enrichment (EPHB1)	phosphorylation enrichment (AncSZ)	phosphorylation enrichment (FGFR3)	phosphorylation enrichment (FGFR1)	phosphorylation enrichment (Fyn)	phosphorylation enrichment (MERTK)	phosphorylation enrichment (Hck)	phosphorylation enrichment (c-Abl (mouse))	phosphorylation enrichment (Fes)	phosphorylation enrichment (EPHB2)	SH2 binding enrichment (c-Src SH2)	SH2 binding enrichment (Grb2 SH2)	SH2 binding enrichment (SHP2-C SH2)
NTDETYCIDNE [TUBB2B_Y200]	0.724	1.53	0.809	0.813	1.47	1.14	0.64	0.795	0.598	0.728	0.982	1.57	0.797	0.544	0.952	0.781
NRDNTYNRVSE [FGA_Y127]	0.395	0.678	0.405	0.472	0.603	0.469	0.38	0.425	0.329	0.457	0.762	0.728	0.407	1.59	0.758	0.775
YYSSEYHCVGG [CTSC_Y345_Y347C]	1.26	3.05	3.66	7.69	3.84	9.28	11.5	2.49	8.36	2.58	6.69	1.04	8.59	0.834	0.726	0.576
KLFRVYCDMNT [FGB_Y269_P265L_YF]	0.523	1.17	0.463	0.777	1.11	0.701	0.548	0.463	0.432	0.471	0.838	1.33	0.619	0.918	0.75	0.65
HKLSYYEYDFE [BTK_Y40]	0.64	1.6	2.48	2.02	1.86	4.03	7.25	2.13	3.67	0.952	1.26	2.13	1.38	3.4	1.05	0.941
PMDTFYDSTRG [DYNC2H1_Y2231_YF]	1.43	0.892	0.664	0.919	1.08	0.806	0.714	0.982	0.501	1.71	0.582	1.05	1.04	1.08	1.04	0.646
REGAKYVSHGT [ASS1_Y113_A118T]	0.375	0.898	0.411	0.513	0.73	0.482	0.493	0.363	0.663	0.37	0.517	0.969	0.587	0.566	0.808	0.706
SVVVPFEPPEV [TP53_Y220_Y220F]	0.467	1.06	0.552	0.578	1.04	0.668	0.533	0.41	0.39	0.502	0.866	1.22	0.628	0.469	0.807	0.537
GKSHIYFWTLD [EML2_Y230_E235D]	0.508	1.11	0.572	0.622	1.17	1.1	1.07	0.514	0.778	0.521	0.847	1.21	0.523	0.387	0.703	0.712
HCEDGYPGGSD [CTNND1_Y221_Y217C]	0.672	1.34	0.514	1.03	1.44	1.15	0.664	0.817	0.626	0.714	1.35	1.81	0.743	0.64	1.06	0.653
SIYKDYYRYNF [PLA2G2D_Y85]	1.32	8.28	4.42	5.65	1.39	11.1	13.6	4.34	5.06	3.09	5.64	0.918	5.61	0.908	0.983	1.92
NIWDSYTTNKV [GNB1_Y85_I80N]	0.414	0.663	0.437	0.515	1	0.658	0.497	0.416	0.387	0.497	0.656	0.9	0.488	0.425	0.983	0.709
TQFWRYFAGNL [SLC25A5_Y112_L111R]	0.351	0.951	0.489	0.6	0.918	0.655	0.494	0.509	0.433	0.493	1.55	1.05	0.589	0.545	0.977	0.894
EIELAYRRRPP [GRIN2B_Y1109]	0.458	0.556	0.353	0.448	0.661	0.455	0.41	0.45	0.385	0.433	0.437	0.587	0.451	0.387	0.642	0.569
GADAIYDHVNE [UQCR10_Y44_I47V]	3.42	0.773	3.77	1.34	1.09	0.62	0.456	4.52	2.02	6.29	0.8	1.08	1.82	0.523	0.79	0.648
KDYETYQPFQN [CTNND2_Y1157]	1.47	0.883	4.83	3.29	1.72	0.801	0.686	6	0.514	6.07	0.846	1.17	7.67	0.43	0.887	0.664
